Results as given in patent EP4814014A1, “BINDING MOLECULE AND ANTIBODY-DRUG CONJUGATE AND USE THEREOF” (priority 2023, dated 2025).
Residue numbers refer to the chain shown, from its start.

Tests used:
[1] = system: EBC-1; assay: Cell killing assay of ADCs (CCK8), EBC-1; assay type: cell-based, human; details: Table 10A; Target cell: EBC-1; 3-5 days
Procedure: Killing of target cells MDA-MB-468, EBC-1, and NCI-H1975 cells (Cell Bank of the Chinese Academy of Sciences) by the ADC molecules formed by conjugating the […] anti-EGFR/cMet antibody molecules described above to a toxin was assayed by the […].
The cells (100 µL, 1 × 10^4) resuspended in a cell culture medium were seeded into each well of a 96-well plate and cultured in an incubator at 37 °C with 5% CO2 overnight. The next day, 100 µL of serially diluted V-20-Fc-PEG-EVC-MMAE, V-23-Fc-PEG-EVC-MMAE, and V-26-Fc-PEG-EVC-MMAE, as well as positive control ADCs ABBV399 and AZD9592 were added to corresponding wells. The cells were cultured for another 3-5 days. Then, 20 µL of CCK8 (Shanghai Life iLab Biotech, Cat. No. AC11L054) was added to each well. The mixtures were cultured in an incubator at 37 °C with 5% CO2 until color development. The absorbance at 450 nm was recorded using a microplate reader (Molecular Device, SpectraMax M5).
The cell viability was calculated by the following formula: percentage cell viability = [(As - Ab) / (Ac - Ab)] × 100. As = experimental well absorbance (cells, culture medium, CCK8, and ADCs); Ab = blank well absorbance (culture medium and CCK8); Ac = control well absorbance (cells, culture medium, and CCK8).

[2] = target: T1, human cMet on cells (human, UniProt P08581 25-1390); assay: FACS, VHH-His on EBC-1 cells (cell column empty in this row)
T1 construct: whole, on cells; Cell lines: CHO-S-cMet, CHOK1-hucMet, EBC-1, MKN45, NCI-H1975; the cell line is named under assay; also called CHO-S-cMet; CHOK1-hucMet
T1 sequence (P08581 25-1390): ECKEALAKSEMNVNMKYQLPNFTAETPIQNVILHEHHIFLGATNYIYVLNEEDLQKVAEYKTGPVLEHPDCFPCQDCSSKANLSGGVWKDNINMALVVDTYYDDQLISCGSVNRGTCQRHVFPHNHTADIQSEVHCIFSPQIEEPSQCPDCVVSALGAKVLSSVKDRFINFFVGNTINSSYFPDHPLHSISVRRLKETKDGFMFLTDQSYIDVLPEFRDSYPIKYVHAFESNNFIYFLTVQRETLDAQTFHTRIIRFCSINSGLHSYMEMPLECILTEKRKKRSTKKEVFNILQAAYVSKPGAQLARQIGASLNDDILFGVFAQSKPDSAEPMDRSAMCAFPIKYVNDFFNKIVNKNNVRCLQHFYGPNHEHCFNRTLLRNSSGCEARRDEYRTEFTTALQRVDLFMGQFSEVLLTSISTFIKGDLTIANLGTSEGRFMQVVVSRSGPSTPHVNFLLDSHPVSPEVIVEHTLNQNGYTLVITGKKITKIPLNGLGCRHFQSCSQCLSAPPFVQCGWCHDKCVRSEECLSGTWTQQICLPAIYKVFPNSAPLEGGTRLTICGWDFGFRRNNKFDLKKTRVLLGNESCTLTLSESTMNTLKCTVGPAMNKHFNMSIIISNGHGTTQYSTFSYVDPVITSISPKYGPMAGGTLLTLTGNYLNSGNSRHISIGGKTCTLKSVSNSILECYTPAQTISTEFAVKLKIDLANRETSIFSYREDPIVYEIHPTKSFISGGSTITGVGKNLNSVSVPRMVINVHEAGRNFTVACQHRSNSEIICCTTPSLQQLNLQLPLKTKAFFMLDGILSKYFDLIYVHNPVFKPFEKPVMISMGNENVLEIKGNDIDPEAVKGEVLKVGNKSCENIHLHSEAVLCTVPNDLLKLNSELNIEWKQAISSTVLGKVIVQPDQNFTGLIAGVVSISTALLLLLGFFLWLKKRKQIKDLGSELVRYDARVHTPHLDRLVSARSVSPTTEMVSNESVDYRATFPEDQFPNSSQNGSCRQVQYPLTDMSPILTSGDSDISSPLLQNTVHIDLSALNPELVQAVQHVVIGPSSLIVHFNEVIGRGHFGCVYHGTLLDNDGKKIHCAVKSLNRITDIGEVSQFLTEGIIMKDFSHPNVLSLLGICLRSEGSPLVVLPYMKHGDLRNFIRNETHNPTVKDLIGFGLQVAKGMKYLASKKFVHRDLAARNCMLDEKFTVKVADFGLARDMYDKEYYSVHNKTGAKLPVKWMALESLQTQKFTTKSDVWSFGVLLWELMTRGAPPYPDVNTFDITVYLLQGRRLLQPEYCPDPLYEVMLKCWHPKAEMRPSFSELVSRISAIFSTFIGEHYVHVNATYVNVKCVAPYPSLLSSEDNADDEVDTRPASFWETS

[3] = target: T1, human cMet on cells; assay: FACS on EBC-1 cells

ABBV399 [reference compound] was tested, and the IC50 [1] was 0.194 nM.

B1: VHH11 (VHH, not shown: small tags and cut ends)
VHH: QSQLVESGGGLVKPGGSLRLSCVASGFTISRSIMSWYRQPPGKERDWVASIGSAGNTNYVDSVKGRFTISRDNAKNSLYLQMNSLRAEDTAVYYCKTTLAVSFSEYWGQGTLVTVSS
notes: Humanized 9A2 anti-cMet VHH-His
Work on B1 yielded an EC50 [2] of 2.11 nM.

B2: anti-cMet biepitopic M-1 molecule (bispecific antibody, V domains shown)
V domain 1: B1 VHH with V5A, K13Q, P14S, R19G, N73V, S77T, L78V, R86K, A87P, L112Q
V domain 2: EVQLVESGGGLIQAGGSLRLSCTASGNIFSSYHMGWFRQAPGKQREFIAYITTREITNYADSVKGRFTISRDNSKNTVYLQMNNLRSEDTAVYYCIADQSREIRRSWGQGTLVTVSS
notes: Asymmetric double-chain form
B2: binds [3].
